Each block holds one binder with its values, some of them ahead of it.
Experiments:
[1] = target: T1, FLAG-tagged human RSPO3 (Genentech) (human, UniProt Q9BXY4 22-272); test: competitive binding ELISA: antibody titrated against LGR4-Fc (LGR4-ECD) binding to plate-coated hRSPO3; signal = bound LGR4-Fc, OD(450/630)/OD no antibody
T1 construct: also called hRSPO3; RSPO3 coated plates; not shown: FLAG tag
T1 sequence: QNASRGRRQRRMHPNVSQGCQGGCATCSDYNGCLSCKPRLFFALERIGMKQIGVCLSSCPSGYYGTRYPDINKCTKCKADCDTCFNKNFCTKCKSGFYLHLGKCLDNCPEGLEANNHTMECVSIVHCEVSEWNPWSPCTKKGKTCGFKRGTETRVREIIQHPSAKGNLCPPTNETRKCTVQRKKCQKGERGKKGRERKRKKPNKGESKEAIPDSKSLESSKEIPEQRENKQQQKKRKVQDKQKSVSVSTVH
Experimental: To measure the activity of anti-RSPO antibodies in blocking the binding of LGR4 and -5 ECDs to RSPOs, MaxiSorp 384-well microwell plates (Thermo Scientific Nunc, Roskilde, Denmark) were coated with 25 ul/well of 0.5 μg/ml hRSPO2 or hRSPO3 (Genentech) in 50 mM carbonate buffer, pH 9.6, overnight at 4° C. Plates were blocked with at 80 ul/well of 0.5% bovine serum albumin, 15 parts per million Proclin 300 in phosphate buffered saline (PBS), pH 7.4, for 1 hour. Serially diluted anti-RSPO antibodies ([…] in […] serial dilution plus buffer blank) containing 0.1 μg/ml LGR4-Fc or 0.015 μg/ml LGR5-Fc in assay buffer (0.5% BSA, 0.05% polysorbate 20, 15 parts per million Proclin 300 in PBS) were added to the plates at 25 ul/well. After a 2-hour incubation, LGR4-Fc and LGR5-Fc bound to the plates were detected using peroxidase labeled goat F(ab′)2 anti-human Fc (Jackson ImmunoResearch, West Grove, Pa.). After a 1 hour incubation, the substrate 3,3′,5,5′-tetramethyl benzidine (Moss Inc., Pasadena, Md.) was added to the plates and the reaction was stopped by adding 1 M phosphoric acid. Plates were washed with PBS, pH 7.4, containing 0.05% tween 20, between steps and all the incubation steps following the coating step were performed at room temperature on an orbital shaker. Absorbance was read at 450 nm on a multiskan Ascent reader (Thermo Scientific, Hudson, N.H.).

[2] = target: T2, human RSPO3 with C-terminal HA tag, stably expressed in 293 cells (human, UniProt Q9BXY4 22-272); test: IHC, FFPE 293 cell pellet, RSPO3 Low
T2 construct: Whole open reading frame expressed in HEK-293 cells (high, medium, low); FFPE pellets; also called hRSPO3; RSPO3 Hi
T2 sequence: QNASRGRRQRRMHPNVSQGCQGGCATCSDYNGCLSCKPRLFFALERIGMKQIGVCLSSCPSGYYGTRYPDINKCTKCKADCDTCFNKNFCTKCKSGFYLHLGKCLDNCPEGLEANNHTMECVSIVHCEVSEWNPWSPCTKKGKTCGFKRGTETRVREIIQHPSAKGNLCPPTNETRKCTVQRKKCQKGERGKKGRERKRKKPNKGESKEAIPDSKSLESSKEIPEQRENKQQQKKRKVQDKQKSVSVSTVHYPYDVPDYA

[3] = target: T2, human RSPO3 with C-terminal HA tag, …; test: IHC, FFPE 293 cell pellet, RSPO3 Hi
recombinant human RSPO2 = recombinant human RSPO2 (human, UniProt Q6UXX9 22-243); test: cell-based or functional assay
cynomolgus RSPO3 [4] = target: T3, cynomolgus RSPO3 (cynomolgus, UniProt A0A2K5UTQ7 22-273); test: cell-based or functional assay
T3 sequence: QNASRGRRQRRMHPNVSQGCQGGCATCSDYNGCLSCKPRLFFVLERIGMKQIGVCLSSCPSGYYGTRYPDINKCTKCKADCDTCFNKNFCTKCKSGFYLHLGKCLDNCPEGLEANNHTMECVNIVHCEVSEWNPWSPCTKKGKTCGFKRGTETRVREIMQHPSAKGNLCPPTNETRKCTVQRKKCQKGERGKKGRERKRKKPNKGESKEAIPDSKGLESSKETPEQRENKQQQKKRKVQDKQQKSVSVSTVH

mouse RSPO3 [5] = target: T4, mouse RSPO3 (mouse, UniProt Q2TJ95 22-277, limits assumed); test: cell-based or functional assay
T4 sequence (looked up): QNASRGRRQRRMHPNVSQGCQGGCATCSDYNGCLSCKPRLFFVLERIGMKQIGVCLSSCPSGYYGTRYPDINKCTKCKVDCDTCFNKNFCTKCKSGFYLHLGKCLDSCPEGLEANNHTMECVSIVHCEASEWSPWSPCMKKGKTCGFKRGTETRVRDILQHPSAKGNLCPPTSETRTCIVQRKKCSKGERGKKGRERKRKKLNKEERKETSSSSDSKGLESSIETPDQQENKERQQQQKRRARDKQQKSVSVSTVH

recombinant human RSPO3 [6] = target: T5, recombinant human RSPO3 (human, UniProt Q9BXY4 22-272); test: cell-based or functional assay
T5 sequence: T1 sequence

cynomolgus RSPO2 = cynomolgus RSPO2 (cynomolgus, UniProt G7PCH9 22-243); test: cell-based or functional assay
mouse RSPO2 = mouse RSPO2 (mouse, UniProt Q8BFU0 22-205, limits assumed); test: cell-based or functional assay
[7] = target: T1, FLAG-tagged human RSPO3 (Genentech); test: competitive binding ELISA: titrated against biotinylated RNF43-Flag (RNF43-ECD) binding to plate-coated hRSPO3; signal = bound RNF43, normalized OD
[8] = target: T6, human RSPO1 with C-terminal HA tag, stably expressed in 293 cells (human, UniProt Q2MKA7 21-263); test: IHC, FFPE 293 cell pellet, RSPO1 Hi; - = not significant staining
T6 construct: also called hRSPO1; RSPO1 Hi

[9] = target: T7, human RSPO4 with C-terminal HA tag, stably expressed in 293 cells (human, UniProt Q2I0M5 20-234); test: IHC, FFPE 293 cell pellet, RSPO4 Hi; - = not significant staining
T7 construct: also called hRSPO4; RSPO4 Hi

[10] = target: T2, human RSPO3 with C-terminal HA tag, …; test: IHC, FFPE 293 cell pellet, RSPO3 Med
mouse RSPO3 [11] = target: T4, mouse RSPO3; test: SPR, BIAcore T200, murine RSPO3 immobilized, antibody injected
Experimental: (§1) The binding affinity of the antibodies in this section was determined by BIAcore™ T200 Format. Briefly, BIAcore™ research grade CMS chips were activated with 1-ethyl-3-(3-dimethylaminopropyl) carbodiimide (EDC) and N-hydroxysuccinimide (NETS) reagents according to the supplier's instructions. huRSPO3 was immobilized to achieve approximately 50 response units (RU) in each flow cell. Unreacted coupling groups were blocked with 1M ethanolamine. For kinetics measurements, Four-fold serial dilutions of variant antibody was injected in HBS-P buffer (0.01M HEPES pH7.4, 0.15M NaCl, 0.005% surfactant P20) at 25° C. with a flow rate of 30 μl/min. Association rates (kon) and dissociation rates (koff) were calculated using a 1:1 Langmuir binding model (BIAcore™ T200 Evaluation Software version 2.0). The equilibrium dissociation constant (Kd) was calculated as the ratio koff/kon.
(§2) The hu5D6v4.1 and the chimeric 5D6 were tested for their ability to bind cyno and mouse RSPO3 as described above except that cyno or murine RSPO3 replaced huRSPO3 in the binding assay. Binding properties for the humanized antibodies are shown below in Table 5.

recombinant human RSPO3 [12] = target: T5, recombinant human RSPO3; test: SPR, BIAcore T200, huRSPO3 immobilized, antibody injected
Experimental: as §1

cynomolgus RSPO3 [13] = target: T3, cynomolgus RSPO3; test: SPR, BIAcore T200, cyno RSPO3 immobilized, antibody injected
Experimental: as §1, §2

Chain of recombinant human RSPO2 (Q6UXX9 22-243): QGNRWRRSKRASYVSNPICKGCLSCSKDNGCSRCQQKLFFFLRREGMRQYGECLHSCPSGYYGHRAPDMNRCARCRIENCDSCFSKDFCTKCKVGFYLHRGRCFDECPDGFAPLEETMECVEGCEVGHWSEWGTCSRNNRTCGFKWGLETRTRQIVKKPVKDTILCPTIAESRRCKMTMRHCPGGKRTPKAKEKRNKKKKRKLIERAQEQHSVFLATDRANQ
T7 sequence (Q2I0M5 other isoform, or with tags, fused parts or gaps limits assumed): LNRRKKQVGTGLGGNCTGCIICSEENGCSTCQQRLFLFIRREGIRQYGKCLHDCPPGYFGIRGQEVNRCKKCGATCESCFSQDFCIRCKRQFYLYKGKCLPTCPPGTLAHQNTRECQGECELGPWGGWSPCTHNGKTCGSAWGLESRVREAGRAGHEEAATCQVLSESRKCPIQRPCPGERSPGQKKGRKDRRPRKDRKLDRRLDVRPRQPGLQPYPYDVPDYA
Chain of cynomolgus RSPO2 (G7PCH9 entry or part of it): as the sequence (Q6UXX9 22-243) above, with V160A, L165P, T178A counted along it
Chain of mouse RSPO2 (Q8BFU0 22-205 limits assumed): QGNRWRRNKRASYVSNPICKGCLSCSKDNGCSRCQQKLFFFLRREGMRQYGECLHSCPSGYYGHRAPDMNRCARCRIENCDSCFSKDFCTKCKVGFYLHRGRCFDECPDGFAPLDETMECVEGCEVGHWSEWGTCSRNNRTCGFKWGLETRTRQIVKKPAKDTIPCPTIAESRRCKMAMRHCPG
T6 sequence (Q2MKA7 other isoform, or with tags, fused parts or gaps limits assumed): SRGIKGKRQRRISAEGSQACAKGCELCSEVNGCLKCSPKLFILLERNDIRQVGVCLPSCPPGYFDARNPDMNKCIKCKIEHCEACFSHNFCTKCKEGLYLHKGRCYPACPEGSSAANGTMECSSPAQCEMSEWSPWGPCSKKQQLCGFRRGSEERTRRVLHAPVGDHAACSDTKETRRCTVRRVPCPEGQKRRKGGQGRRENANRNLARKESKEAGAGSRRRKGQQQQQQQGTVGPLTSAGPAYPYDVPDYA

B1: 5D6 (antibody, V domains shown)
VH: EVQLQESGPSLVKPSQTLSLTCSVTGDSITSGYWNWIRKFPGNKFEYMGYISYSGKTYQNPSLKSRISITRDTSKNQYHLQLNSVTTEDTATYYCATYYGYGGPWFAYWGQGTLVTVSA
VL: DIVLTQSPSSMYASLGERVTITCKASQDIDSYLSWFQQKPGKSPKTLIYLTNRLVDGVPSRFSGSGSGQDYSLTISSLEYEDMGIYYCLHYDEFPLTFGAGTKLEIK
notes: Murine; also called monoclonal antibody 5D6; mu5D6
IC50 (read off the curve) [1]: ~0.1 µg/mL | percentage of cells staining [2]: 30% | percentage of cells staining [3]: > 95% | IC50, WNT luciferase reporter, bivalent antibody (recombinant human RSPO2): > 500 nM | IC50, WNT luciferase reporter, bivalent antibody (cynomolgus RSPO3 [4]): 0.0003 nM | IC50, WNT luciferase reporter, bivalent antibody (mouse RSPO3 [5]): 0.001 nM | IC50, WNT luciferase reporter, bivalent antibody (recombinant human RSPO3 [6]): 0.0003 nM | IC50, WNT luciferase reporter, bivalent antibody (cynomolgus RSPO2): > 500 nM | IC50, WNT luciferase reporter, bivalent antibody (mouse RSPO2): > 500 nM | IC50 (read off the curve) [7]: ~0.1 µg/mL | binding result [8]: no binding | binding result [9]: no binding | percentage of cells staining [10]: 70%

B4: 4H1 (antibody, V domains shown)
VH: EVKLVESGGGFVKPGGSLKLSCAASGFTFSNFAMSWVRQSPEKRLEWVAEINNGGNYAYYQDTVTGRFTISRDNAKNTLYLEMSSLRSEDTAMYFCAREDYVNYEAYFAYWGQGTTLTVSS
VL: SIVMTQTPLSLPVSLGDQASISCRSSQSIVHSNGNTYLEWYLQKPGQSPKLLIYRISNRFSGVPDRFSGSGSGTDFTLKISRVEAEDLGVYYCFQGSHVPYTFGGGTKLEIK
notes: Hybridoma-derived monoclonal (mice or hamsters immunized with hRSPO2 and/or hRSPO3), cloned, expressed and purified; also called monoclonal antibody 4H1
IC50 (read off the curve) [1]: ~0.1 µg/mL | percentage of cells staining [2]: 30% | percentage of cells staining [3]: 90% | IC50, WNT luciferase reporter, bivalent antibody (recombinant human RSPO2): 6.4 nM | IC50, WNT luciferase reporter, bivalent antibody (cynomolgus RSPO3 [4]): 0.29 nM | IC50, WNT luciferase reporter, bivalent antibody (mouse RSPO3 [5]): 0.69 nM | IC50, WNT luciferase reporter, bivalent antibody (recombinant human RSPO3 [6]): 0.8 nM | IC50, WNT luciferase reporter, bivalent antibody (cynomolgus RSPO2): 2.8 nM | IC50, WNT luciferase reporter, bivalent antibody (mouse RSPO2): > 500 nM | IC50 (read off the curve) [7]: ~0.08 µg/mL | binding result [8]: no binding | binding result [9]: no binding | percentage of cells staining [10]: 60%

B5: 6E9 (antibody, V domains shown)
VH: QVQLKESGPGLVQPSQSLSITCTVSGFSLTSYGVHWVRQSPGKGLEWLGVIWSGGSTDYNAAFISRLSISKDNSKSQVFFKMNSLQANDTAIYYCARNDGYYYFDYWGQGTTLTVSS
VL: DIKMTQSTSSLSASLGDRVTISCRASQDISNYLNWYQQKPDGTVKLLIYYTSRLHSGVPSRFSGSGSGTDYSLTISNLEQEDIATYFCQQGDTLPPAFGGGTKLEIK
notes: also called monoclonal antibody 6E9
IC50 (read off the curve) [1]: ~0.1 µg/mL | percentage of cells staining [2]: 50% | percentage of cells staining [3]: > 95% | IC50, WNT luciferase reporter, bivalent antibody (recombinant human RSPO2): > 500 nM | IC50, WNT luciferase reporter, bivalent antibody (cynomolgus RSPO3 [4]): 6.5 nM | IC50, WNT luciferase reporter, bivalent antibody (mouse RSPO3 [5]): 140 nM | IC50, WNT luciferase reporter, bivalent antibody (recombinant human RSPO3 [6]): 5.6 nM | IC50, WNT luciferase reporter, bivalent antibody (cynomolgus RSPO2): > 500 nM | IC50, WNT luciferase reporter, bivalent antibody (mouse RSPO2): > 500 nM | IC50 (read off the curve) [7]: ~0.08 µg/mL | binding result [8]: no binding | binding result [9]: no binding | percentage of cells staining [10]: 70%

Now from value to binder:

Kd (mouse RSPO3 [11]): 0.0578 nM | koff (mouse RSPO3 [11]): 0.000237 s⁻¹ | kon (mouse RSPO3 [11]): 4.1e+06 M⁻¹ s⁻¹ | Kd (recombinant human RSPO3 [12]): 0.0331 nM | koff (recombinant human RSPO3 [12]): 0.000116 s⁻¹ | kon (recombinant human RSPO3 [12]): 3.51e+06 M⁻¹ s⁻¹ | Kd (cynomolgus RSPO3 [13]): 0.0453 nM | koff (cynomolgus RSPO3 [13]): 0.000224 s⁻¹ | kon (cynomolgus RSPO3 [13]): 4.96e+06 M⁻¹ s⁻¹
B2: chimeric 5D6 (antibody, V domains shown)
VH: B1 VH
VL: B1 VL
notes: also called 5D6 chimera

Kd (mouse RSPO3 [11]): 0.0993 nM | koff (mouse RSPO3 [11]): 0.000423 s⁻¹ | kon (mouse RSPO3 [11]): 4.26e+06 M⁻¹ s⁻¹ | Kd (recombinant human RSPO3 [12]): 0.0635 nM | koff (recombinant human RSPO3 [12]): 0.000229 s⁻¹ | kon (recombinant human RSPO3 [12]): 3.6e+06 M⁻¹ s⁻¹ | Kd (cynomolgus RSPO3 [13]): 0.0811 nM | koff (cynomolgus RSPO3 [13]): 0.000434 s⁻¹ | kon (cynomolgus RSPO3 [13]): 5.35e+06 M⁻¹ s⁻¹
B3: hu5D6v4.1 (Fab, V domains shown)
VH: EVQLVESGPGLVKPSETLSLTCTVSGDSITSGYWNWIRQPPGKGLEWIGYISYSGKTYQNPSLKSRVTISRDTSKNQFSLKLSSVTAADTAVYYCATYYGYGGPWFAYWGQGTLVTVSS
VL: DIQMTQSPSSLSASVGDRVTITCKASQDIDSYLSWFQQKPGKAPKTLIYLTNRLVDGVPSRFSGSGSGTDYTLTISSLQPEDFATYYCLHYDEFPLTFGQGTKVEIK
notes: Humanized 5D6 variant; also called v1+T69 (LC)+(W47+I48+V67+F78 (HC))
